Where no end group is shown, it is not given here.
How the values were obtained:
[1] = target: FVIII free human von Willebrand factor (VWF) (human, UniProt P04275 764-2813)
[2] = target: physiologic human von Willebrand factor (VWF) (human, UniProt P04275 764-2813)

binding result [1]: binds | binding result [2]: binds
Binder: TRYLRIHPQSWVHQI (also: lipid-peptide bioconjugate, displayed on liposome surface) [VWF-binding peptide (VBP), FVIII-derived, decorated on liposomal nanoconstructs]

— publication PMC4300948 (Nanoscale, 2014)
